Paper PMC4954775
Substitutions are numbered along the chain they refer to. Names and notes keep the numbering of the source.

B1: α-L-iduronidase (IDUA) (Homo sapiens) (protein)
chain: APHLVHVDAARALWPLRRFWRSTGFCPPLPHSQADQYVLSWDQQLNLAYVGAVPHRGIKQVRTHWLLELVTTRGSTGRGLSYNFTHLDGYLDLLRENQLLPGFELMGSASGHFTDFEDKQQVFEWKDLVSSLARRYIGRYGLAHVSKWNFETWNEPDHHDFDNVSMTMQGFLNYYDACSEGLRAASPALRLGGPGDSFHTPPRSPLSWGLLRHCHDGTNFFTGEAGVRLDYISLHRKGARSSISILEQEKVVAQQIRQLFPKFADTPIYNDEADPLVGWSLPQPWRADVTYAAMVVKVIAQHQNLLLANTTSAFPYALLSNDNAFLSYHPHPFAQRTLTARFQVNNTRPPHVQLLRKPVLTAMGLLALLDEEQLWAEVSQAGTVLDSNHTVGVLASAHRPQGPADAWRAAVLIYASDDTRAHPNRSVAVTLRLRGVPPGPGLVYVTRYLDNGLCSPDGEWRRLGRPVFPTAEQFRRMRAAEDPVAAAPRPLPAGGRLTLRPALRLPSLLLVHVCARPEKPPGQVTRLRALPLTQGQLVLVWSDEHVGSKCLWTYEIQFSQDGKAYTPVSRKPSTFNLFVFSPDTGAVSGSYRVRALDYWARPGPFSDPVPYLEVPVPRGPPSPGNP
B2: α-L-iduronidase (IDUA) (Homo sapiens; P533R) (protein)
chain: B1 chain with P506R

Substrate: Cc1cc(=O)oc2cc(O[C@@H]3O[C@@H](C(=O)O)[C@@H](O)[C@H](O)[C@H]3O)ccc12
Assay: purified protein

Protein	Km [µM]
B1	27.0 ± 2.3
B2	35.3 ± 3.66
